This passage reports Kd results from US20260078341A1 (published 2026).

Substitutions are numbered along the chain they refer to. Like-named read-outs stand apart in the source and are kept apart here.

The target of assay [1] is T1, EGFR on cells (tumor lines, primary cell lines, K562 cells electroporated with EGFR mRNA, A431) (UniProt P00533 25-1210). The assay can be described thus: not stated; affinity of the scFv.
For assay [2], the target named is T1, EGFR on cells (tumor lines, primary …). The assay is described as follows: not stated; affinity of the scFv. The source holds these as a separate data set.

B1: P2-4BBZ CAR (other)
chain: DYKDDDDKEVQLVQSGAEVKKPGSSVKVSCKASGGTFSSYAISWVRQAPGQGLEWMGGIIPIFGTANYAQKFQGRVTITADESTSTAYMELSSLRSEDTAVYYCAREEGPYCSSTSCYAAFDIWGQGTLVTVSSGGGGSGGGGSGGGGSQSVLTQDPAASVALGQTVKITCQGDSLRSYFASWYQQKPGQAPTLVMYARNDRPAGVPDRFSGSKSGTSASLAISGLQSEDEADYYCAAWDDSLNGYLFGAGTKLTVLTTTPAPRPPTPAPTIASQPLSLRPEACRPAAGGAVHTRGLDFACDIYIWAPLAGTCGVLLLSLVITLYCKRGRKKLLYIFKQPFMRPVQTTQEEDGCSCRFPEEEEGGCELRVKFSRSADAPAYKQGQNQLYNELNLGRREEYDVLDKRRGRDPEMGGKPRRKNPQEGLYNELQKDKMAEAYSEIGMKGERRRGKGHDGLYQGLSTATKDTYDALHMQALPPR
Consider B1, for which the Kd in assay [1] and in assay [2] was 15.4 nM each time.

B2: P3-5BBZ CAR (other)
chain: B1 chain with M56V, T77K, T84A, A119G, A159V, F180L, M196T
For the molecule B2, the dissociation constant (Kd) in assay [1] and in assay [2] was 88.2 nM each time.

B3: C10-BBZ CAR (other)
chain: B1 chain with A119G, A159V
As for B3, the Kd in assay [1] and in assay [2] was 264 nM each time.

For orientation: Kd means the free concentration of one partner at which half of the binding sites on the other are occupied at equilibrium, for simple one-to-one binding. A higher Kd goes with a looser complex.
